Data: patent publication US20120027677A1
Read-outs that look alike come from different tables or passages of the source.

How the values were obtained:
[1] = molecular target: T1, PrP^Sc, pathogenic form of the human prion protein (from CJD brain homogenate) (human), P04156
[2] = molecular target: T1, PrP^Sc, pathogenic form of the human …; remark: listed apart in the source
[3] = molecular target: T1, PrP^Sc, pathogenic form of the human …; remark: listed apart in the source
[4] = molecular target: T1, PrP^Sc, pathogenic form of the human …; remark: listed apart in the source

GGGKKRPKPGG (modifications not checked) [peptide of SEQ ID NO: 68]
Mean (ELISA signal) [1]: 138 RLU
Exp. Mean (ELISA signal) [2]: 853 RLU
Exp. Mean (as % of 68) [2]: 100%
Exp. Mean (ELISA signal) [3]: 418 RLU
Exp. Mean (as % of 68) [3]: 100%
Mean (% of 68) [4]: 100%
Mean (ELISA signal) [4]: 85 RLU
